Here are results for two molecules from US7799901B2, “Modulators of the function of FAS receptors and other proteins” (Yeda Research and Development Co. Ltd., priority 1995, dated 2010).

Assay [1] relates to human embryonic kidney 293-EBNA cells. In words: Cell death on overexpression of MACH isoforms in 293-EBNA cells. The assay is classed as cell-based. To be noted: β-galactosidase-expressing cells with apoptopic morphology, 20 h after transfection. The method, then: To explore the involvement of MACH in cell-death induction, the effect of overexpression of various MACH isoforms on cell viability was examined. The test was performed by transfecting MACH expression vectors together with a β-galactosidase expression vector as a transfection marker into human embryonic kidney 293-EBNA cells and breast carcinoma MCF7 cells.
In brief, 293-EBNA cells, MCF7 human breast carcinoma cells and HeLa HtTA-1 cells were grown in Dulbecco's modified Eagle's minimal essential medium supplemented with 10% fetal calf serum, nonessential amino acids, 100 U/ml penicillin and 100 μg/ml streptomycin. Cell tissue culture dishes (5×10^5 293-EBNA cells, 3×10^5 s MCF7 cells or 3×10^5 HeLa cells in 6-cm dishes) were transiently transfected, using the calcium phosphate precipitation method, with the cDNAs of the indicated proteins together with the β-galactosidase expression vector. In the experiments presented in FIGS. 14A-D and 15, each dish was transfected with 3.5 μg of the indicated MACH construct and 1.5 μg of pSV-β-gal. In the experiments presented in FIGS. 16A-D and 17-19, each dish was transfected with 2.5 μg of the indicated MACH or MORT1 construct (or, as control, empty vector) and 1.5 μg of pSV-β-gal. The cells were rinsed 6 to 10 h after transfection. The 293-EBNA and MCF7 cells were incubated for a further 18 h without additional treatment. The HeLa cells were incubated for 26 h after transfection and-then for 5 h in the presence of either anti-Fas.APO1 antibody (CH11, 0.5 μg/ml) or TNF (100 ng/ml), together with cycloheximide (10 μg/ml). The extent of cell death at the end of the incubation periods was assessed by determination of β-galactosidase expression, as described by Kumar et al, 1994.
In particular, FIGS. 14A-D show the morphology of human embryonic kidney 293-EBNA cells transiently expressing the indicated MACH isoforms. The arrows (FIG. 14B) point to apoptopic cells. Photographs were taken 26 h after transfection. […] Data are from three independent experiments with the 293-EBNA cells and two independent experiments with the MCF7 cells.

Assay [2] has as its system FAS-R mediated cell death in HeLa cells. In words: Anti-FAS-R antibody (CH-11) induced death of HeLa cells co-expressing FAS-R, neutral-red uptake. Particulars: co-expression with human FAS-R in HeLa HtTA-1; CH-11 antibody plus 10 μg/ml cycloheximide. The assay is classed as cell-based. The text has this:
In another set of experiments to analyze the region of the MORT-1 protein involved in the binding to the FAS-IC, the following proteins were expressed transiently in HeLa cells that contain a tetracycline-controlled transactivator (HtTA-1), using a tetracycline-controlled expression vector (pUHD10-3): Human FAS-R alone; Human FAS-R as well as the N-terminal part of MORT-1 (amino acids 1-117, the “MORT-1 head”); Human FAS-R as well as the C-terminal part of MORT-1, which contains its ‘death domain’ homology region (amino acids 130-245, the “MORT-1 DD”); FLAG-55.11 (amino acids 309-900 of protein 55.11 fused at the N-terminus to the FLAG octapeptide, the protein 55.11 being a p55-IC-specific binding protein. Twelve hours after transfection, the cells were trypsinized and re-seeded at a concentration of 30,000 cells/well. After 24 hrs further incubation, the cells were treated for 6 hrs with a monoclonal antibody against the extracellular domain of FAS-R (monoclonal antibody CH-11, Oncor, Gaithersburg, Md., USA) at various concentrations (0.001-10 μg/ml monoclonal antibody), in the presence of 10 μg/ml cycloheximide. Cell viability was then determined by the neutral-red uptake assay and the results were presented in terms of % viable cells as compared to cells that had been incubated with cycloheximide alone (in the absence of anti-FAS-R monoclonal antibody CH-11). […]

The target of another assay is T1, MORT-1 (Homo sapiens, UniProt Q13158, G32V).
T1 sequence (Q13158 with tags, fused parts or gaps G32V): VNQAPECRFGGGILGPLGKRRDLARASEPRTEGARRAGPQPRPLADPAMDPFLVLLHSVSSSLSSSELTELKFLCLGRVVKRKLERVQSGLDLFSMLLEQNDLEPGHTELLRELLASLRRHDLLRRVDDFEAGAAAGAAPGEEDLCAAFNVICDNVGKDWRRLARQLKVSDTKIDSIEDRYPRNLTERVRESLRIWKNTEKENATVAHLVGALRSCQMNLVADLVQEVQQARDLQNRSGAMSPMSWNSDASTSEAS
In words: Two-hybrid test (FIG. 1), binding to full-length MORT-1. Also noted: expressed in transfected cells; host or cells: SFY526 yeast. The text has this: (§1) To isolate proteins interacting with the intracellular domain of the FAS-R, the yeast two-hybrid system was used (Fields and Song, 1989). […] In this system, the genes for the candidate interacting proteins are cloned into separate expression vectors. In one expression vector, the sequence of the one candidate protein is cloned in phase with the sequence of the GAL4 DNA-binding domain to generate a hybrid protein with the GAL4 DNA-binding-domain, and in the other vector, the sequence of the second candidate protein is cloned in phase with the sequence of the GAL4 activation domain to generate a hybrid protein with the GAL4-activation domain. The two hybrid vectors are then co-transformed into a yeast host strain having a lacZ or HIS3 reporter gene under the control of upstream GAL4 binding sites. Only those transformed host cells (cotransformants) in which the two hybrid proteins are expressed and are capable of interacting with each other, will be capable of expressing the reporter gene. In the case of the lacZ reporter gene, host cells expressing this gene will become blue in color when X-gal is added to the cultures.
(b) retransforming the plasmid DNA and original FAS-IC hybrid plasmid and control plasmids described in (a) into yeast host cells of strain SFY526 and determining the LACZ^+ activity (effectivity of β-gal formation, i.e., blue color formation).
In FIG. 1, there is depicted the interaction of the proteins encoded by the Gal4 DNA binding domain and activation-domain constructs (pGBT9 and pGAD-GH) within transfected SFY526 yeasts as assessed by β-galactosidase expression filter assay. The DNA-binding-domain constructs included four constructs of the human Fas-IC, four constructs of the mouse Fas-IC including two full-length constructs having […] or Ile to Ala replacement mutations at position 225 (I225N and I225A, respectively), and three MORT-1 constructs, all of which are shown schematically on the left hand side of FIG. 1. […]

In a further assay the target is T2, FAS-IC (Homo sapiens, UniProt P25445).
T2 construct: the FAS-IC extends-from amino acid residues 175-319 of the intact FAS-R; expressed in transfected cells; host or cells: SFY526 yeast
T2 sequence (P25445 191-335): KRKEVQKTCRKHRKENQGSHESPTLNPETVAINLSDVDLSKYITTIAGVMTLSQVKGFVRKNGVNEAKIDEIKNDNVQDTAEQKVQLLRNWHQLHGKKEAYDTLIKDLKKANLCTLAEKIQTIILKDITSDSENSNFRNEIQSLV
Put plainly: Two-hybrid test (FIG. 1), binding of MORT-1 fragments to FAS-IC.
Source text: as §1, with “cultures. […]” for “cultures.”
In FIG. 1, there is depicted the interaction of the proteins encoded by the Gal4 DNA binding domain and activation-domain constructs (pGBT9 and pGAD-GH) within transfected SFY526 yeasts as assessed by β-galactosidase expression filter assay. […]

B1: MACHα2: MACH isoform, cDNA SEQ ID NO: 17, amino acid SEQ ID NO: 18 (protein)
chain: MDFSRNLYDIGEQLDSEDLASLKFLSLDYIPQRKQEPIKDALMLFQRLQEKRMLEESNLSFLKELLFRINRLDLLITYLNTRKEEMERELQTPGRAQISAYRVMLYQISEEVSRSELRSFKFLLQEEISKCKLDDDMNLLDIFIEMEKRVILGEGKLDILKRVCAQINKSLLKIINDYEEFSKGEELCGVMTISDSPREQDSESQTLDKVYQMKSKPRGYCLIINNHNFAKAREKVPKLHSIRDRNGTHLDAGALTTTFEELHFEIKPHDDCTVEQIYEILKIYQLMDHSNMDCFICCILSHGDKGIIYGTDGQEAPIYELTSQFTGLKCPSLAGKPKVFFIQACQGDNYQKGIPVETDSEEQPYLEMDLSSPQTRYIPDEADFLLGMATVNNCVSYRNPAEGTWYIQSLCQSLRERCPRGDDILTILTEVNYEVSNKDDKKNMGKQMPQPTFTLRKKLVFPSD
For B1, in assay [1], the “cell death of transfected 293-EBNA cells” value was “massive cell death”.

B2: fragment corresponding to residues 130-245: C-terminal part of MORT-1 containing its death domain homology region, amino acids 130-245 (protein)
chain: FEAGAAAGAAPGEEDLCAAFNVICDNVGKDWRRLARQLKVSDTKIDSIEDRYPRNLTERVRESLRIWKNTEKENATVAHLVGALRSCQMNLVADLVQEVQQARDLQNRSGAMSPMS
Regarding B2, the “effect on FAS-induced (FAS-R mediated) cell death” value in assay [2] is “strongly interferes”. For the same molecule, the “binding to full-length MORT-1 in two-hybrid test” value with MORT-1 was “does not bind”. Further, in the assay with FAS-IC, the “binding to FAS-IC / FAS-R in two-hybrid test” value was “binds”.
